Source: the DeepSol protein solubility set

Assay: soluble on expression in E. coli; label from the status in PepcDB or PDB records

| Sequence | soluble on expression in E. coli |
| --- | --- |
| MTNLELSGSQSYLNDESTANLSSLAGKFLVQFWGVRGLIPTPSSNTSRYGGNTACVEMQVAGKRLIFDGGTGLRILGKAWQHLQQPLEAHLFFTNSQSNRIQGFPFFAPAFIAGNCFHIYGGAASNGASIKQCLCDQMLQPHFPYPLQVMQSELQFYPLTPDSEVKLDDVTIRTALINQTQRSIGYRVTWQEYSVAYVTDLNMSAEQGEREQVLQIIQDVDLLIANATYTPPTSHDHESVDLLWQAAVEMAQKAGVRKLIISHHHPDDHDDFLDQVEKEVQSTFSDALLACEGLALPVFLEHHHHHH | soluble |
| MTNLFVRSGISFVDRSEVLTYIGNEMLAKGVVHDTWPQALIAREAEFPTGIMLEQHAIAIPHCEAIHAKSSAIYLLRPTNKVHFQQADDDNDVAVSLVIALIVENPQQQLKLLRCLFGKLQQPDIVETLITLPETQLKEYFTKYVLDSDE | not soluble |
| MTNMRQVLKTDRLVLEPQSMARFDQWFAMERQRDEAGHRDLTEDQAWLRLCARQGMWDAYACGFYYLLDPVSGEMRGEAGFQFRRRGFGPGFDNHPEAAWAVASAHQGRGLAAEAMQALLAHHDRSSGRQRVVALIARSNLPSLRLAERLGFRGYSDVAFDGAAHLLLERAG | soluble |
| MTNPLNSTAANRSNQPSSDGISDGQITNEEAESLINKKNCSGHKLKEVTDSDTFSDNGKDDSDTKKRFHYHQDQRRMSLTSIVAVESPSSSNAPSRKTIDLGHGSDLIYIQRFLPFQQSWTFFDYLDKHIPWTRPTIRVFGRSCLQPRDTCYVASSGLTALVYSGYRPTSYSWDDFPPLKEILDAIYKVLPGSRFNSLLLNRYKGASDYVAWHADDEKIYGPTPEIASVSFGCERDFVLKKKKDEESSQGKTGDSGPAKKRLKRSSREDQQSLTLKHGSLLVMRGYTQRDWIHSVPKRAKAEGTRINLTFRLVL | not soluble |
| MTNRLILFDFDETYYKHRTNQADIPYLKEMKSLLQNITAKNNVITAILTGSTIESVLQKMSKVNMSYKPQHIFSDLSSKMFTWNNCEYIESDEYKNEVLIEPFLLEDILDILKHVSSKHKVEFIPQRIFRENETLYNFYFYSSGDTHLDKTILEDLSQYSKTRDYTMTFNRCNPLAGDPENAYDINFTPKNAGKLYATKILMNKYGVPKELIIGFGDSGNDEAFLSYLDHAMIMSNSQDEEMKSKFKNTKYPYYKGIYTHVREFIEYENV | not soluble |
| MTNRQWETLREYDEIKYEFYEGIAKVTINRPEVRNAFTPKTVAEMIDAFSRARDDQNVSVIVLTGEGDLAFCSGGDQKKRGHGGYVGEDQIPRLNVLDLQRLIRIIPKPVIAMVKGYAVGGGNVLNVVCDLTIAADNAIFGQTGPKVGSFDAGYGSGYLARIVGHKKAREIWYLCRQYNAQEALDMGLVNTVVPLEKVEDETVQWCKEIMKHSPTALRFLKAAMNADTDGLAGLQQMAGDATLLYYTTDEAKEGRDAFKEKRDPDFDQFPKFP | soluble |
| MTNSVLRVLEHLRAHDHDAIVLAPGDADTPHEYAGFPVIPLASLHWPGYQDVRVSTSPQWTMERYLSEFEPDVVHLAGPFMIGYKGAMAAASLGIPIVAIYQTDIPSYAGRYGLGKLEFYGWYRVRQIHSLAVATYAPSTFSRDQLVSHGVPRVDIWGRGVDKVRFHPSKRSQQLHDEWAPNGEVVIGYMGRLAAEKRVADMTNLADIPNTKLVIVGDGPARAEVEKQLPHAVFTGGLGGEDLPRALASMDVFCSTGELETFCQAVQEAKACGLPVISPRKGGPIDLIDSSRTGWLYEPGDMTDFRSRVIDLVGDDYKRHAMGIAARASIENRTWENLCAELVEHYKEAIRLAGRSTRIRAVLLEHHHHHH | not soluble |
| MTNTGETKVIESHGTIKKIDSLSTMPYCGVETDENAVVEEKITLESGKSWSPKHYELLHERIERLIDEKQQFFSLEFFPPRFVNGVPNFLERVERLSEGGSVFVDMTWHMGSDPANVDKVTSSSSIAASMLDYCGVDTMLHMTCVQYNKADTLKHLEQAKAMGLRSILALRGDLPPGTELEDTHQFRALDMIRWIREEYGNYFSIGCAGYPLGHPQAPSYKADLMYLKAKCDAGANFVITQLFFEAETFEKFVRDCREIGITQPIIPGIMPIMGYESIKRIAKLSQLEIPQHILDDLEPIKHDDDAVQKYGTERCIEMCRRLLDNGTAPSIHLYTMNREGSIREILKSLGLWKLEGDRVFPWKNRSQHPIRCLESVRPIYWSFRPRSYITRTRDWDQFPNGRWGNSSSPAFGDVSSYYLSNLTTVRNADDRLAMFGANIESFEDVKRVFINYITQAPNADGVKVTVLPWTEAETGVQPETSLISEQLVWCNENGILTVNSQPSVNGAPSTDPLVGWGKPGGYCYQKAYLECFMTAELSDKLIQIIEREFPVRVNYHAINKDSTFDKTNSEETTPIAVTWGVFPGSEIAQPTVVDPLSFRAWRDEAYQMWMAQWGDFYPKESKSYGVIKAVHDEFRLVTLVDNDFQKPSVLFDVLQKALDELKK | not soluble |
| MTPAQLTGTTDSHLQSTMVGQKAFLMHPDVANDLLNMIEAAKKAGFKMEIASGFRDFSRQRAIWNGKYEGELPILDSNSQPLNKAALSDEEKLKAILRWSALPGGSRHHWGCDFDVYARNLLPPDTKLQLEPWEYLEGHQLAFYCWLKDHIDEFGFFFPYLQDLGGVAIEPWHISHKAIGQQCAAQLNAEMLKDELVRQNQQHNIAGLESILNNLDSILSTYIRNITPPPEAL | not soluble |
| MTPIHVVGIGLDGLPGLAAAVQQIIDSATLLVGSDRHLQLIPQGDTPRLSLGNFNASLKAIQTHLDTTANPQVVILTSGDPLFYGLGRWLLEVFAPDQLTFHPHLSAVQLAFSRLKLPWQDAVIYSAHGRDLAGLVPLLQRGVEKIAIYTDGEANIAAISRLYQALHIPVTYRAWVCQALGSAEEAILPWDLAQPVTALPPVHPLNLVVLLRQPQRLPPREQPIVGLGDDQFFTFADRPSLMTKREVRVLVLAELALTSTVEIVWDIGAGTGSVAVEIARLAPQATIYAIEKTAIGFQLIERNRRAFGLANLIPLQGTAPQCLRDLPPPDRVFIGGSGAQLLANLDYCWSHLNAGGRLVLAIATLEHQGQVLHWCQTHQINPQVLQVQLSRSVPLGQGHRLHPLNPVTLMTLTQGLEHHHHHH | not soluble |
| MTPLKRYQKDIAEHGFQRDEAQHQAVVALDKLYHDIVEFQSAPIPQLSKWQKLMGKKVEMPQPPKGLYFWGGVGRGKTYLMDAFFDALPTDRKMRVHFHRFMYRVHDELKRLGEVENPLSKVADLFKQEADIVCFDEFFVSDITDAMILATLLQEMFKRQMVLVATSNIEPQNLYRNGLQRARFLPAIDMILARCHVLNVDSGVDYRLRTLEQAEIYHYPLDEQASINLNTYYQQLTAERKSVAHKIDINHRQISVIEASDGVLHASFEQLCQTARSQNDYIELSRIYHTVLLADVRQMNRKIDDAARRFIALVDEFYERNVKLIISAEVEMDALYSEGQLEFEFKRCVSRLTEMQSHEYLAREHLALEHHHHHH | soluble |
| MTPRIIVTDMDGTLLNSEHEIPARFWPLLDEMHEQGIVFAPASGRQLYTLLDQFAQAGKDLSVIAENGTVVYHEGEIISVTTIDPEVAHRVIRTMAHSDLDWGVVVCRVDGAFIARGDVEFLTETVRYYAKLDVVDDLHSVVNDQVIKLAIYSFPDAETVAAPALAESVGDHTLAISGAHWIDIMSPHANKGVALQQLADNLGVPIEHTAAFGDYLNDYELLHTAGTAYAMSNAHPDIKDIADHVVGSNDEESVLTTIHSLLTAAK | not soluble |
| MTQAVMLQGTASDVGKSVLAAGLCRIFYQDGLRTAPFKSQNMALNSGITPDGKEMGRAQIFQAEAAGITPDVRMNPVLLKPTSDRQAQVVLMGKVATNMDAVSYHDYKPRLREQILAVYNSLAQEYDVIVLEGAGSPAEINLRDRDIVNMGMAEMAQCPVILVADIDRGGVFAAIYGTLALLHKQERDRVKGVIINKFRGDVALLYSGIEQIESLTGVPVLGVMPWLDVDLEDEDGVALQNDKYRGNAPRDITIAIVQLPHISNFTDFNALAAQPDVRIRYIRRPEALTDVDLVILPGSKNTLSDLAWLRESGMADAVLQTHRQGVPVMGICGGYQMLGDTIVDEVESGLGTQPGLGLLNTITRFAQDKTTTQVNATMSGELPGWLAAAAGLPVRGYEIHMGETVLQEGCCTAMTLQKNGCSVADGAVTADGLAFGTYLHGLFDSDAFTRAVVNGLRARKGLAPWETTFCYADHKARQFDLLAEAMRQHIDIDKIYTIMQQHQEPV | not soluble |
| MTQHSRDTPQFYLTAPSPCPYLPGRHERKVFTHLVGNKAGELNDLLTHGGFRRSQSIAYRPACDQCRACVSVRVIANEFKPSRNQRKLLARNADIVGEQRNPVPTSEQYSVFRAYLDQRHRYGGMADMTVLDYAMMVEDSHVQTRMIEYRKRTPDTGITGRGGELIAAALTDVLGDGLSMVYSFYEPNEQHRSLGTFMILDHIARARRLGLPYVYLGYWIEGSKKMDYKGRYLPQQRLAPSGWLRIDASGEMQPEPQDLEHHHHHH | not soluble |
| MTQLRHFSHGASVFDIDSVEDFTEKVIQSSVPVIVDFHAEWCGPCQALGPRLEEKVNGRQGSVLLAKINVDHAGELAMDYGISAVPTVFAFKNGEKISGFSGVLDDEQLDDFIEDVLAA | not soluble |
| MTQPAAAVAAAAPAQTAPILGECVLKLSRSTTYEPPLYLFPELLPPVPQGTPPLPVWDAVADAVDIAASSWRVADATQLIAAGVAAAGTSGIKPSTGVERRPQAMVTLTSMIAENRLLAAGLDATVLERDAFSSAAIITHLAALQARMGLSDEEGAAIMSNHFINLLAWQKLRELNGPSLHAAVSRAEQKVSDEEAAGSAAFSPSHAAPPPSRKRSRADQDNDERDVWLPSPHPWATEAELAASDGSGRFVAVSEANVEQQVELLRTLAELYHRPWRTLASRGQQTDFVVPPGTVNVTSPFADNSKVPGALLDPATALGWGATLSSSLSTDYFGGVRVAHTACFYAVVLSAGTPTSAGKSVAPAPTRLPLDELTTYFGRESGVRGAAAVAAAAATPIAGALAPYTTHPEVLSRFQFALVLRPVYEHAADANEVRRPDSHLHVGKREPSTDDEASESDADAHQGHAAVLHTKRPHHYTLWLVNYGRNGVRVAGRGWVLSEPRQLQAGDVLIVGSEVQLRVEEHFSAAAARAPVVSDATLNTASVSSSQVKQERIEG | not soluble |
| MTQQIKYKRVLLKLSGESLMGSDPFGINHDTIVQTVGEIAEVVKMGVQVGIVVGGGNIFRGVSAQAGSMDRATADYMGMMATVMNALALKDAFETLGIKARVQSALSMQQIAETYARPKAIQYLEEGKVVIFAAGTGNPFFTTDTAAALRGAEMNCDVMLKATNVDGVYTADPKKDPSATRYETITFDEALLKNLKVMDATAFALCRERKLNIVVFGIAKEGSLKRVITGEDEGTLVHC | soluble |
| MTQVRETVSFKAGDVILYPGVPGPRDRAYRVLEGLVRLEAVDEEGNALTLRLVRPGGFFGEEALFGQERIYFAEAATDVRLEPLPENPDPELLKDLAQHLSQGLAEAYRRIERLATQRLKNRMAAALLELSETPLAHEEEGKVVLKATHDELAAAVGSVRETVTKVIGELAREGYIRSGYGKIQLLDLKGLKELAESRGQGR | soluble |
| MTRAEVGLVWAQSTSGVIGRGGDIPWSVPEDLTRFKEVTMGHTVIMGRRTWESLPAKVRPLPGRRNVVVSRRPDFVAEGARVAGSLEAALAYAGSDPAPWVIGGAQIYLLALPHATRCEVTEIEIDLRRDDDDALAPALDDSWVGETGEWLASRSGLRYRFHSYRRD | soluble |
